Measured values taken from publication PMC9807187.

Biological target: FLAG-tagged METTL3, wild type (UniProt Q8C3P7)
Test: co-IP

UniProt Q8C3P7, sequence (Q8C3P7 whole entry): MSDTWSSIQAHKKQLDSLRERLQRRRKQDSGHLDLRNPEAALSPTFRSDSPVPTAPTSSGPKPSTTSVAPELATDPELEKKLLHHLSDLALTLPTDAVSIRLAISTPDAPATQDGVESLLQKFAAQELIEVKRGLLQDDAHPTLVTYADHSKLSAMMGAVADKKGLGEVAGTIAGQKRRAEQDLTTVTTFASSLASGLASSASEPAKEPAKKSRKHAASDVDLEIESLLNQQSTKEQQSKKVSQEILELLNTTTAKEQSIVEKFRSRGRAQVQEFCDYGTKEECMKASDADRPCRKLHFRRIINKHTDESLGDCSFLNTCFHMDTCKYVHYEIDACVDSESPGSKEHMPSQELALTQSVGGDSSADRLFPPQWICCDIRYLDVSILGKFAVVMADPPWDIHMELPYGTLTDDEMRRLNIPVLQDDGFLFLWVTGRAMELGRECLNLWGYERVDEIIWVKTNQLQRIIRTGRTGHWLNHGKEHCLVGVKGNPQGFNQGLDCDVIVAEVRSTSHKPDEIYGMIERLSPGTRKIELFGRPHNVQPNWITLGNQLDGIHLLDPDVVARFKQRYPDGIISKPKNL

- reduction of binding against wild-type p53: 50%
Substance: HA-p53 25,26,53,54 (p53 L25Q,Q26S,F53Q,F54S mutant) (from UniProt P02340 1-390) (natural protein)
